Experimental data published in PMC7901142 (The Journal of Cell Biology, 2021).

Target: SNX27-PDZ WT (human, UniProt Q96L92 43-136)
Assay: ITC

Kd: 4.5 µM
B1: SEMA4C (aa 686–833) (domain or fragment)
chain: LRRRLREELEKGAKATERTLVYPLELPKEPTSPPFRPCPEPDEKLWDPVGYYYSDGSLKIVPGHARCQPGGGPPSPPPGIPGQPLPSPTRLHLGGGRNSNANGYVRLQLGGEDRGGLGHPLPELADELRRKLQQRQPLPDSNPEESSV
